Assay results: paper PMC4081050

Substrate: O=C(O)[C@@H](O)[C@H](O)[C@H](O)[C@@H](O)C(=O)O
Experiment: purified protein
Conditions: dehydration, 20 mM HEPES pH 7.9, 5 mM MgCl2, 1 μM enzyme

B1: A9CG74 (GalrD-III) (Agrobacterium fabrum str. C58) (protein)
chain: MKIDRMRVFVTRDKDRPRVIVALDTDDGMTGWGECYNHGPDLALPPVLDYLYNFLAGQDPTRVEFLYNLMLQQNRFPPGALGLSAISALDHCLWDLAAKAVGVPVYKLLGGEVRNRIKVYAGVYTAPDAPAARDEFDRLNEGWGFSAFKLSPWRVDIHAHRWGEVVRSSAEYFRTLRETVRADYDIAFDAHAKIFEPSAARQLGNALAPYDPLFYEEPLRPENIEMYGDLKQGLNCTLATGESLYNRNEFLRLLQVKGADIIQPDICVVGGISEMRRIATLAEAHFVSIAPHNPMGPLATAVNVHFCAVQQNFRILEYRLPKGQVYAYGGNDLVKEEDVTRYVVDPYLPRDGYLELRPDRPGWGVEMDEKAMQEDGYVHWQRRVPKRPDGSYAFA
In the case of B1, the Km is reported as 80 ± 30 µM, the kcat is reported as 0.12 ± 0.05 s⁻¹ and the kcat/Km is reported as 1500 M⁻¹ s⁻¹.
